The text below walks through data of patent publication US7285703B2, “Plant like starches and the method of making them in hosts” (BASF Plant Science GmbH, priority 1998, dated 2007).

Substrate in data set [1]: Nc1ncnc2c1ncn2[C@@H]1O[C@H](COP(=O)(O)OP(=O)(O)O[C@H]2O[C@H](CO)[C@@H](O)[C@H](O)[C@H]2O)[C@@H](O)[C@H]1O
Briefly: ADPGlc kinetics of starch synthase SSI-3. The class given is biochemical, maize. Particulars: other: −citrate, 5 mg/ml amylopectin as primer, 37° C. The source says:
(§1) FIG. 58. SSI-1, SSI-2, and SSI-3 construct design. Three forms of SSI were constructed in the pET expression (see Methods). pExs10a encodes SSI-1, the full length maize SSI (583 amino acids) which has the N-terminal sequence CVAELSREGP (SEQ ID NO:64). pExs8 encodes a truncated SSI, SSI-2, with amino acids # 8-52 deleted from the N-terminus of SSI-1 and which has the N-terminal sequence CVAELSR/DLG (SEQ ID NO:65). pExs1d encodes the most truncated form of SSI, SSI-3, with the first 93 amino acids deleted from SSI-1 and which has the N-terminal sequence SIVFVTGE (SEQ ID NO:66). A depiction of the waxygene, encoding GBSS, which has the N-terminal sequence ASAGMNW (SEQ ID NO:67), is also included for comparison. The amino acid motif KS/TGGL (SEQ ID NO:9), the putative binding site for ADGPGlc, in indicated by the triangles. The KS/TGGL (SEQ ID NO:9) motif is located 18 amino acids from the N-terminus in GBSS, while the motif is 106 amino acids from the N-terminus in maize SSI. Drawing not to scale.
(§2) 5 mL of supernatant were used to assay STS and SBE activities as previously described (Preiss) with minor modification. […] The unincorporated [^14C]-ADPGlc was separated with Dowex anion exchange column (200-400 mesh, Sigma Chemical Co.). […] SBE activity was determined by phosphorylase stimulation assay. One unit of activity is defined as 1 mmol Glc incorporated into the a-glucan per min at. […]

Substrate in data set [2]: Nc1ncnc2c1ncn2[C@@H]1O[C@H](COP(=O)(O)OP(=O)(O)O[C@H]2O[C@H](CO)[C@@H](O)[C@H](O)[C@H]2O)[C@@H](O)[C@H]1O
Briefly: ADPGlc kinetics of starch synthase SSI-1. The class given is biochemical, maize. Particulars: other: −citrate, 5 mg/ml amylopectin as primer, 37° C.
Description: as §1, §2

Substrate in data set [3]: Nc1ncnc2c1ncn2[C@@H]1O[C@H](COP(=O)(O)OP(=O)(O)O[C@H]2O[C@H](CO)[C@@H](O)[C@H](O)[C@H]2O)[C@@H](O)[C@H]1O
Briefly: purified protein, by the assay type. The following applies: other: −citrate, 5 mg/ml amylopectin as primer, 37° C.

Substrate in data set [4]: Nc1ncnc2c1ncn2[C@@H]1O[C@H](COP(=O)(O)OP(=O)(O)O[C@H]2O[C@H](CO)[C@@H](O)[C@H](O)[C@H]2O)[C@@H](O)[C@H]1O
Kind of data set: ADPGlc kinetics of starch synthase SSIIb-2. The class given is biochemical, maize. Particulars: 37° C. The source says:
FIG. 60. SSIIb-1 and SSIIb-2 construct diagram. Two forms of SSIIb were constructed in the pET expression system (see Methods). pExs9 encodes SSIIb-1 which has the N-terminal sequence GSVGAALRS (SEQ ID NO:70), the putative full-length maize SSIIb which has the N-terminal sequence AAAPAGEE (SEQ ID NO:2). […] A depiction of the waxy gene, encoding GBSS which has the N-terminal sequence ASAGMNVV (SEQ ID NO:67), is also included for comparison. The amino acid motif KTGGL (SEQ ID NO:10), the putative binding site for ADPGlc, is indicated by the triangles. The KTGGL (SEQ ID NO:10) motif is located 18 amino acids from the N-terminus in GBSS, while the motif is 158 amino acids from the N-terminus in maize SSIIb.
5 mL of supernatant were used to assay STS and SBE activities as previously described (Preiss) with minor modification. […] […] The unincorporated [^14C]-ADPGlc was separated with Dowex anion exchange column (200-400 mesh, Sigma Chemical Co.). […] SBE activity was determined by phosphorylase stimulation assay. One unit of activity is defined as 1 mmol Glc incorporated into the a-glucan per min at. 30° C.
For the recombinant SS purification, the cell pellet was resuspended in sonication buffer (50 mM Tris-acetate, pH 7.5, 10 mM EDTA, and 5 mMDTT; 7 ml buffer per gram of cell mass), and cells were lysed using a Fisher 550 Sonic Dismembrator with 5×1 min. bursts with 30 sec. intervals. The homogenate was centrifuged at 9600 g for 30 minutes. SSI in the supernatant was then precipitated by slowly adding neutralized saturated ammonium sulfate to 40% saturation. After stirring on ice for an additional 50 minutes, proteins were collected by centrifugation at 12500 g for 45 minutes. The protein pellet was then redissolved in buffer A (50 mM Tris, pH 5.5, 1 mM EDTA, and 5 mM DTT) containing 0.1 M KCl and dialyzed against the same buffer, with one change of buffer. After dialysis, the sample was centrifuged at 13000 g for 20 minutes to remove insoluble materials. The resulting supernatant was loaded onto […] pre-equilibrated with dialysis buffer, and the flow through was collected. The column was washed with 10 column volumes of buffer a containing 0.1 M KCl, and then with buffer A containing 0.5 M KCl and 0.5 M maltose, collecting fractions during both washes. The active fractions were pooled and dialyzed overnight against buffer A, with one change of buffer. The next day, the amylase column sample was filtered and applied to a mono Q 5/5 FPLC column (Pharmacia). After washing with buffer A, a 20 ml 0-0,4 M KCl gradient was employed. […]

Substrate in data set [5]: Nc1ncnc2c1ncn2[C@@H]1O[C@H](COP(=O)(O)OP(=O)(O)O[C@H]2O[C@H](CO)[C@@H](O)[C@H](O)[C@H]2O)[C@@H](O)[C@H]1O
Briefly: ADPGlc kinetics of starch synthase SSIIb-1. The class given is biochemical, maize. The following applies: 37° C.

B1: maize starch synthase SSI-3 (STSI-3), N-terminally truncated SSI, first 93 amino acids of SSI-1 deleted, N-terminus SIVFVTGE (SEQ ID NO:66) (Zea mays) (protein)
chain: SIVFVTGEASPYAKSGGLGDVCGSLPVALAARGHRVMVVMPRYLNGTSDKNYANAFYTEKHIRIPCFGGEHEVTFFHEYRDSVDWVFVDHPSYHRPGNLYGDKFGAFGDNQFRYTLLCYAACEAPLILELGGYIYGQNCMFVVNDWHASLVPVLLAAKYRPYGVYKDSRSILVIHNLAHQGVEPASTYPDLGLPPEWYGALEWVFPEWARRHALDKGEAVNFLKGAVVTADRIVTVSKGYSWEVTTAEGGQGLNELLSSRKSVLNGIVNGIDINDWNPATDKCIPCHYSVDDLSGKAKCKGALQKELGLPIRPDVPLIGFIGRLDYQKGIDLIQLIIPDLMREDVQFVMLGSGDPELEDWMRSTESIFKDKFRGWVGFSVPVSHRITAGCDILLMPSRFEPCGLNQLYAMQYGTVPVVHATGGLRDTVENFNPFGENGEQGTGWAFAPLTTENMFVDIANCNIYIQGTQVLLGRANEARHVKRLHVGPCR
For B1, in data set [1], the Km was found to be 620 ± 40 µM.

B2: maize starch synthase SSI-1 (STSI-1), full length SSI (583 amino acids), N-terminus CVAELSREGP (SEQ ID NO:64) (Zea mays) (protein)
chain: CVAELSREGPAPRPLPPALLAPPLVPGFLAPPAEPTGEPASTPPPVPDAGLGDLGLEPEGIAEGSIDNTVVVASEQDSEIVVGKEQARAKVTQSIVFVTGEASPYAKSGGLGDVCGSLPVALAARGHRVMVVMPRYLNGTSDKNYANAFYTEKHIRIPCFGGEHEVTFFHEYRDSVDWVFVDHPSYHRPGNLYGDKFGAFGDNQFRYTLLCYAACEAPLILELGGYIYGQNCMFVVNDWHASLVPVLLAAKYRPYGVYKDSRSILVIHNLAHQGVEPASTYPDLGLPPEWYGALEWVFPEWARRHALDKGEAVNFLKGAVVTADRIVTVSKGYSWEVTTAEGGQGLNELLSSRKSVLNGIVNGIDINDWNPATDKCIPCHYSVDDLSGKAKCKGALQKELGLPIRPDVPLIGFIGRLDYQKGIDLIQLIIPDLMREDVQFVMLGSGDPELEDWMRSTESIFKDKFRGWVGFSVPVSHRITAGCDILLMPSRFEPCGLNQLYAMQYGTVPVVHATGGLRDTVENFNPFGENGEQGTGWAFAPLTTENMFVDIANCNIYIQGTQVLLGRANEARHVKRLHVGPCR
Consider B2, for which the Km in data set [2] is 240 ± 20 µM.

B3: maize starch synthase SSI-2 (STSI-2), N-terminally truncated SSI, amino acids 8-52 of SSI-1 deleted, N-terminus CVAELSR/DLG (SEQ ID NO:65) (Zea mays; DEL47-91) (protein)
chain: CVAELSRDLGLEPEGIAEGSIDNTVVVASEQDSEIVVGKEQARAKVTQSIVFVTGEASPYAKSGGLGDVCGSLPVALAARGHRVMVVMPRYLNGTSDKNYANAFYTEKHIRIPCFGGEHEVTFFHEYRDSVDWVFVDHPSYHRPGNLYGDKFGAFGDNQFRYTLLCYAACEAPLILELGGYIYGQNCMFVVNDWHASLVPVLLAAKYRPYGVYKDSRSILVIHNLAHQGVEPASTYPDLGLPPEWYGALEWVFPEWARRHALDKGEAVNFLKGAVVTADRIVTVSKGYSWEVTTAEGGQGLNELLSSRKSVLNGIVNGIDINDWNPATDKCIPCHYSVDDLSGKAKCKGALQKELGLPIRPDVPLIGFIGRLDYQKGIDLIQLIIPDLMREDVQFVMLGSGDPELEDWMRSTESIFKDKFRGWVGFSVPVSHRITAGCDILLMPSRFEPCGLNQLYAMQYGTVPVVHATGGLRDTVENFNPFGENGEQGTGWAFAPLTTENMFVDIANCNIYIQGTQVLLGRANEARHVKRLHVGPCR
Turning to B3, the Km in data set [3] turned out to be 250 ± 40 µM.

B4: maize starch synthase SSIIb-2, N-terminally truncated SSIIb, first 144 amino acids deleted (492 amino acids), N-terminus MNVVVVASE (SEQ ID NO:71) (Zea mays) (protein)
chain: MNVVVVASECAPFCKTGGLGDVVGALPKALARRGHRVMVVIPRYGEYAEARDLGVRRRYKVAGQDSEVTYFHSYIDGVDFVFVEAPPFRHRHNNIYGGERLDILKRMILFCKAAVEVPWYAPCGGTVYGDGNLVFIANDWHTALLPVYLKAYYRDNGLMQYARSVLVIHNIAHQGRGPVDDFVNFDLPEHYIDHFKLYDNIGGDHSNVFAAGLKTADRVVTVSNGYMWELKTSEGGWGLHDIINQNDWKLQGIVNGIDMSEWNPAVDVHLHSDDYTNYTFETLDTGKRQCKAALQRQLGLQVRDDVPLIGFIGRLDHQKGVDIIADAIHWIAGQDVQLVMLGTGRADLEDMLRRFESEHSDKVRAWVGFSVPLAHRITAGADILLMPSRFEPCGLNQLYAMAYGTVPVVHAVGGLRDTVAPFDPFNDTGLGWTFDRAEANRMIDALSHCLTTYRNYKESWRACRARGMAEDLSWDHAAVLYEDVLVKAKYQW
For B4, in data set [4] (other: with amylopectin), the Michaelis constant (Km) came to 320 ± 30 µM and the Vmax was found to be 90.9 ± 4.2 μmol min^−1 mg^−1 protein. Moreover, in data set [4] (other: with glycogen), the Michaelis constant (Km) stood at 320 ± 40 µM and the Vmax was determined as 130 ± 6 μmol min^−1 mg^−1 protein.

B5: maize starch synthase SSIIb-1, putative full-length SSIIb (637 amino acids), N-terminus … (SEQ ID NO:70) (Zea mays) (protein)
chain: AAAPAGGESEEAAKSSSSSQAGAVQGSTAKAVDSASPPNPLTSAPKQSQSAAMQNGTSGGSSASTAAPVSGPKADHPSAPVTKREIDASAVKPEPAGDDARPVESIGIAEPVDAKADAAPATDAAASAPYDREDNEPGPLAGPNVMNVVVVASECAPFCKTGGLGDVVGALPKALARRGHRVMVVIPRYGEYAEARDLGVRRRYKVAGQDSEVTYFHSYIDGVDFVFVEAPPFRHRHNNIYGGERLDILKRMILFCKAAVEVPWYAPCGGTVYGDGNLVFIANDWHTALLPVYLKAYYRDNGLMQYARSVLVIHNIAHQGRGPVDDFVNFDLPEHYIDHFKLYDNIGGDHSNVFAAGLKTADRVVTVSNGYMWELKTSEGGWGLHDIINQNDWKLQGIVNGIDMSEWNPAVDVHLHSDDYTNYTFETLDTGKRQCKAALQRQLGLQVRDDVPLIGFIGRLDHQKGVDIIADAIHWIAGQDVQLVMLGTGRADLEDMLRRFESEHSDKVRAWVGFSVPLAHRITAGADILLMPSRFEPCGLNQLYAMAYGTVPVVHAVGGLRDTVAPFDPFNDTGLGWTFDRAEANRMIDALSHCLTTYRNYKESWRACRARGMAEDLSWDHAAVLYEDVLVKAKYQW
notes: N-terminus printed as both … and AAAPAGEE
B5: in data set [5] (other: with amylopectin), the Km came out at 400 ± 20 µM and the Vmax stood at 72.8 ± 2.8 μmol min^−1 mg^−1 protein. Besides, in data set [5] (other: with glycogen), the Km worked out at 710 ± 10 µM and the Vmax is listed as 76.8 ± 3.2 μmol min^−1 mg^−1 protein.
